{
  "source": "patent US7700727B2",
  "about": "“Compositions and kits for detecting pathogen infection” (Biokit, S.A., priority 2003, dated 2010)",
  "key": {"lysozyme [1]": {"target": "T1, lysozyme (Homo sapiens, UniProt P61626)", "T1 sequence (P61626 19-148)": "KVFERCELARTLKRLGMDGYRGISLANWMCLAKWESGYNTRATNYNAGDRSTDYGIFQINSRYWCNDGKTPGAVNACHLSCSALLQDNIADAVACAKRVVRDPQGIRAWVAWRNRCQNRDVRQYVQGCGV", "test": "Far Western blot lysozyme-protein interaction assay", "format": "binding", "details": "1, 5 and 10 μg immobilized lysozyme per lane; washes with 0.05% Tween 20", "protocol": "(§1) In order to test this hypothesis, a Far-Western blot lysozyme-protein interaction assay was performed. The assay is summarized in FIG. 5 and comprises generally the following three steps: (1) immobilization of purified lysozyme onto a membrane; (2) probing of the membrane with a ligand likely to bind directly to the lysozyme; and (3) immunodetection of the bound lysozyme-ligand. A detailed experimental procedure is presented below.\n(§2) Purified chicken egg white lysozyme and human breast milk lysozyme were purchased from Sigma-Aldrich (Madrid, Spain). Two series of aliquot fractions containing 1 μg, 5 μg, and 10 μg of purified lysozyme and a protein molecular weight marker (SeeBlue Plus II™, Invitrogen SA, Barcelona, Spain) were separated electrophoretically through a 4-12% SDS-PAGE gel using the conditions recommended by the supplier (Invitrogen). […] The presence of lysozyme immobilized onto the PVDF membrane was assessed by staining for 1 minute with Ponceau S stain (Sigma-Aldrich, Madrid, Spain), and then destained by vigorous washing for 5 minutes with desionized water. The membrane was divided in two, each portion containing a protein ladder and three quantities of chicken or human lysozyme (1 μg, 5 μg and 10 μg per lane). […]"}, "chicken lysozyme [2]": {"target": "T2, chicken lysozyme (Gallus gallus, UniProt P00698)", "T2 sequence (P00698 19-147)": "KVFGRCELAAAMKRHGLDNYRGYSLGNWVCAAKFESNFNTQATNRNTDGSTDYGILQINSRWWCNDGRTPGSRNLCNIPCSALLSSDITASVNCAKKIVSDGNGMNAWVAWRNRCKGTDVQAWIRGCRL", "test": "Lysozyme inhibition assay (EnzCheck, fluorescein-labeled Micrococcus lysodeikticus)", "format": "biochemical", "protocol": "(§3) To test this hypothesis, the antibacterial activity of both human and chicken lysozyme, in the presence or absence of GST-Tp17, was assayed using an EnzCheck® lysozyme assay kit (Molecular Probes, Eugene, Oreg.). The assay comprises the use of Fluorescein-labeled Micrococcus lysodeikticus bacterial cells as a fluorescent substrate of lysozyme. In this Gram positive bacterium, the peptidoglycan layer is directly accessible to lysozyme, and has been Fluorescein-labeled such that fluorescence is naturally quenched. Upon lysozyme hydrolysis, quenching is relieved and fluorescein is released in a quantity that is proportional to lysozyme activity. The following experimental protocol was used.\n(§4) A typical 100 μl reaction consisted of 25 μl of lysozyme solution (10 units for chicken lysozyme or 50 units for human lysozyme, dissolved in deionized water), 25 μl of the test protein solution and 50 μl of a suspension of fluorescein-labeled Micrococcus lysodeikticus (50 μg/ml). The reaction was incubated for 45 minutes at 37° C. and the fluorescence was measured (λexc.=485 nm; λemi.=520 nm) using a fluorescence multi-well plate reader model FLx800 (Bio TEK instruments, Winoosky, Vt.) equipped with KC junior data acquisition software (Bio TEK Instruments, Winoosky, Vt.). Each experimental point was expressed as the mean and standard deviation corresponding to the reading of three independent wells. Wells containing 50 μl of deoinized water and 50 μl of Fluorescein-labeled Micrococcus lysodeikticus suspension were used as a blank. Two fold serial dilutions of test protein were used to vary the concentration of the test protein from 83.5 to 1.3 μg/well."}, "lysozyme [3]": {"target": "T1, lysozyme", "test": "Lysozyme inhibition assay (EnzCheck, fluorescein-labeled Micrococcus lysodeikticus)", "format": "biochemical", "protocol": "as §3, §4"}, "chicken lysozyme [4]": {"target": "T2, chicken lysozyme", "test": "Far Western blot lysozyme-protein interaction assay", "format": "binding", "parameters": "Purified chicken egg white lysozyme; purchased Sigma-Aldrich (Madrid, Spain); host or cells: chicken egg white", "details": "1, 5 and 10 μg immobilized lysozyme per lane; washes with 0.05% Tween 20", "protocol": "as §1, §2"}, "[5]": {"tested_on": "Micrococcus lysodeikticus", "details": "pH 6.24, 25° C., Micrococcus lysodeikticus suspension; cited from earlier work"}, "lysozyme [6]": {"target": "T1, lysozyme", "test": "Lysozyme binding assay on spotted β-APP fragments with POD-labeled human lysozyme", "details": "10 μg protein spotted; POD-huLYS diluted 1/1000", "protocol": "To test whether the β-APP protein binds huLYS, we performed lysozyme binding assays using purified, recombinant forms of β-APP. Both sAPPα (product number: S9564) and sAPPα (302-612) (product number: S8065) were purchased from Sigma-Aldrich (Tres cantos, Madrid, Spain). 10 μg of each protein was spotted onto a Nytran membrane (Scleicher & Schuiell, Dassel, Germany). Non-specific adsorption sites were blocked by incubation for one hour in TBST-milk. After three washes with TBST, the membrane was incubated for one hour with horse radish peroxidase (POD)-labeled human lysozyme diluted 1/1000 in TBST-milk. Next, the membrane was washed three times, for 5 minutes each wash, with TBST. Staining was performed by adding 5 ml of POD chromogenic substrate (TMB, product number: T0565, Sigma). […] Moreover, the β-APP/huLYS protein complex likely serves as a diagnostic marker of Alzheimer's disease."}, "[7]": {"tested_on": "anti-T. pallidum antibodies in human sera", "test": "Syphilis ELISA (Bioelisa, second and third generation format) with added lysozyme", "from_the_text": "Syphilis screening is routinely performed using enzyme-linked immunosorbent assays (ELISA) kits. These kits detect the binding of anti-syphilis antibodies to T. pallidum antigens immobilized in the wells of a microtiter plate. Detection of the binding of anti-syphilis antibodies to the plate is normally carried out by means of either an enzyme-labeled antiserum directed against human Fc antibody chains (second generation kit) or an enzyme-labeled T. pallidum antigen (third generation kit).\nAll the reagents used in this study are provided by the commercial Bioelisa Syphilis 3.0 detection kit (Biokit S.A., Lliça d'Amunt, Spain). The protocol used is that recommended in the package insert of the kit. Briefly, serum or plasma samples are added to the wells of a microtiter plate. If antibodies specific for T. pallidum are present in the sample, they form stable complexes with the antigens on the well. After washing to remove the unbound material, a rabbit conjugate anti-human IgG and anti-human IgM labelled with horseradish peroxidase is added and, if the antigen/antibody complex is present, the conjugate binds to the complex. After a second wash, an enzyme substrate solution containing a chromogen is added. This solution develops a blue color if the sample is positive. The blue color changes to yellow after blocking the reaction with sulphuric acid. […]"}, "GST-Tp17 or Tp17-HIS": {"tested_on": "GST-Tp17 or Tp17-HIS", "sequence (P29722 23-156 limits assumed)": "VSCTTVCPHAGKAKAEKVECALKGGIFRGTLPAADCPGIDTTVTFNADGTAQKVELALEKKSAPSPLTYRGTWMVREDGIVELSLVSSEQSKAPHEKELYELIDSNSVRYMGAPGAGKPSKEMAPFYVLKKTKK", "test": "Antibacterial activity of lysozymes with or without Tp17 (EnzCheck)", "format": "biochemical, Treponema pallidum", "details": "1 unit human lysozyme or 230 units rLysozyme; 10 μg GST-Tp17 or Tp17-HIS", "from_the_text": "In that context, we compared the antibacterial activity of human lysozyme (Ventria Bioscience, Sacramento, Calif., USA) and rLysozyme™ using the EnzCheck Lysozyme assay (E-22013; Molecular Probes, Eugene, Oreg.). We first determined that under the manufacturer's prescribed assay conditions, 1 unit of human lysozyme produced the same intensity of fluorescence as 230 units of rLysozyme™. Next, we measured the fluorescence intensity of either 1 unit of human lysozyme or 230 units of rLysozyme™, in the presence or absence of 10 μg of either GST-Tp17 or Tp17-HIS. […] As a consequence, rLysozyme™ represents a novel and promising antimicrobial drug that could eventually substitute for chicken lysozyme in various therapeutic preparations intended for human and animal use. Additionally, it can be used as an antiseptic and/or as a food preservative."}, "[8]": {"details": "test protein 83.5 to 1.3 μg/well"}},
  "data": [
    {"molecule": "GST-Tp17: recombinant fusion of glutathione S-transferase and Treponema pallidum 17 kDa antigen Tp17 (SEQ ID NO:29)", "values": [
      {"measurement": "binding to human lysozyme", "setting": "lysozyme [1]", "result": "detected binding"},
      {"measurement": "inhibition of acetyl muramidase activity of chicken lysozyme", "setting": "chicken lysozyme [2]; as little as 1.3 μg/well, 10 units chicken lysozyme", "result": "> 85", "unit": "%"},
      {"measurement": "inhibition of acetyl muramidase activity of human lysozyme", "setting": "lysozyme [3]; as little as 1.3 μg/well, 50 units human lysozyme", "result": "> 85", "unit": "%"},
      {"measurement": "binding to chicken lysozyme", "setting": "chicken lysozyme [4]", "result": "detected binding"}
    ]},
    {"molecule": "recombinant human transgenic rice lysozyme: purified recombinant human lysozyme from transgenic rice (159-53LZ-90P; Ventria Bioscience)", "values": [
      {"measurement": "specific activity", "setting": "[5]", "result": "187,000 units/mg protein"}
    ]},
    {"molecule": "sAPPα: longer recombinant fragment of β-APP derived from the APP695 isoform (Sigma S9564)", "values": [
      {"measurement": "binding of POD-labeled human lysozyme (huLYS)", "setting": "lysozyme [6]", "result": "bound"}
    ]},
    {"molecule": "human lysozyme: human lysozyme (NP_000230); breast milk-derived in Example 8, recombinant (Ventria) in Examples 10 and 16 (protein, listed as Homo sapiens) KVFERCELARTLKRLGMDGYRGISLANWMCLAKWESGYNTRATNYNAGDRSTDYGIFQINSRYWCNDGKTPGAVNACHLSCSALLQDNIADAVACAKRVVRDPQGIRAWVAWRNRCQNRDVRQYVQGCGV", "values": [
      {"measurement": "increase in signal intensity", "setting": "[7]; second generation format, lysozyme added to the plate at 2.86 μg/ml, syphilis-positive human sera", "result": "about 20%"},
      {"measurement": "increase in signal intensity", "setting": "[7]; third generation format, lysozyme in sample dilution buffer (10.8 μg/ml) and conjugate dilution buffer (1.08 μg/ml), 3 out of 4 sera", "result": "about 200%"},
      {"measurement": "susceptibility of antibacterial activity to inhibition by GST-Tp17 or Tp17-HIS", "setting": "GST-Tp17 or Tp17-HIS", "result": "strongly inhibited"}
    ]},
    {"molecule": "GST-Tp47: control protein, GST fusion of T. pallidum Tp47 antigen (protein, left off: a dimerising Fc or GST, control protein, GST fusion of T. pallidum Tp47 antigen) CGSSHHETHYGYATLSYADYWAGELGQSRDVLLAGNAEADRAGDLDAGMFDAVSRATHGHGAFRQQFQYAVEVLGEKVLSKQETEDSRGRKKWEYETDPSVTKMVRASASFQDLGEDGEIKFEAVEGAVALADRASSFMVDSEEYKITNVKVHGMKFVPVAVPHELKGIAKEKFHFVEDSRVTENTNGLKTMLTEDSFSARKVSSMESPHDLVVDTVGTGYHSRFGSDAEASVMLKRADGSELSHREFIDYVMNFNTVRYDYYGDDASYTNLMASYGTKHSADSWWKTGRVPRISCGINYGFDRFKGSGPGYYRLTLIANGYRDVVADVRFLPKYEGNIDIGLKGKVLTIGGADAETLMDAAVDVFADGQPKLVSDQAVSLGQNVLSADFTPGTEYTVEVRFKEFGSVRAKVVAQ", "values": [
      {"measurement": "binding to human lysozyme", "setting": "lysozyme [1]", "result": "No signal was detected"},
      {"measurement": "inhibitory effect on chicken lysozyme acetyl muramidase activity (in words)", "setting": "chicken lysozyme [2]; [8]", "result": "did not exert any inhibitory effect"},
      {"measurement": "inhibitory effect on human lysozyme acetyl muramidase activity (in words)", "setting": "lysozyme [3]; [8]", "result": "did not exert any inhibitory effect"},
      {"measurement": "binding to chicken lysozyme", "setting": "chicken lysozyme [4]", "result": "No signal was detected"}
    ]}
  ]
}
